Test results: PMC7618375, “Structure and Methyl-lysine Binding Selectivity of the HUSH Complex Subunit MPP8” (Journal of molecular biology, 2024)
No end group written: not given here. Me2 = dimethyl on the lysine side-chain amine

How the values were obtained:
[1] = target: T1, MPP8 chromodomain (CD, residues 55-116) (human, UniProt Q99549 55-116); test: ITC; 750 uM peptide in the syringe titrated into 50 uM MPP8 CD in the cell; 50 mM HEPES pH 7.4, 0.1 M NaCl, 0.5 mM TCEP, 25 °C; single-site model; conditions: both partners purified
T1 construct: MPP8 (M-phase phosphoprotein 8), human, chromodomain, residues 55-116, UniProt Q99549; Cloned in pET15b with a TEV site (ENLYFQG) in place of the thrombin site; also called MPP8 CD; M-phase phosphoprotein 8 chromodomain; source: E. coli BL21 (DE3), purified (Ni-NTA, Mono Q, Superdex 75 SEC)
T1 sequence (looked up): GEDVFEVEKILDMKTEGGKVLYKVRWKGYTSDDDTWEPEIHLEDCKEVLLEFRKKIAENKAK

[2] = target: the molecule itself; test: crystal structure; MPP8 CTD, X-ray, 3.04 Å, eight chains in the asymmetric unit; crystals at 18 °C, PEG 4000/1,2,6-hexanetriol, pH 8.5

Binder: TKQTARK(Me2)STGGK [Histone H3 peptide dimethylated at lysine 9]
- Kd [1]: 1700 nM

B1: MPP8 C-terminal domain (CTD, residues 547-860) (domain or fragment, human, UniProt Q99549 547-860, looked up)
chain: DFQKHLDGKDENFAATDAIPSNVLRDAVKNGDYITVKVALNSNEEYNLDQEDSSGMTLVMLAAAGGQDDLLRLLITKGAKVNGRQKNGTTALIHAAEKNFLTTVAILLEAGAFVNVQQSNGETALMKACKRGNSDIVRLVIECGADCNILSKHQNSALHFAKQSNNVLVYDLLKNHLETLSRVAEETIKDYFEARLALLEPVFPIACHRLCEGPDFSTDFNYKPPQNIPEGSGILLFIFHANFLGKEVIARLCGPCSVQAVVLNDKFQLPVFLDSHFVYSFSPVAGPNKLFIRLTEAPSAKVKLLIGAYRVQLQ
notes: MPP8 (M-phase phosphoprotein 8), human, C-terminal domain (ankyrin repeats and PINIT-like domain), residues 547-860, UniProt Q99549; residues 547-562 disordered in the crystal, model spans 563-860; also called MPP8 CTD; source: E. coli BL21 (DE3), purified (Ni-NTA, thrombin cleavage, Resource Q, Superdex 200 SEC); not shown: His6, N-terminal, cleaved
- stoichiometry N [2]: 2
